According to paper PMC5460274, “Human dimethylarginine dimethylaminohydrolase 1 inhibition by proton pump inhibitors and the cardiovascular risk marker asymmetric dimethylarginine: in vitro and in vivo significance” (Scientific Reports, 2017):

Substrate: CN(C)C(=N)NCCC[C@H](N)C(=O)O
Assay: cells, lysate or membranes

B1: dimethylarginine dimethylaminohydrolase 1 (DDAH1) (Homo sapiens) (protein)
chain: AGLGHPAAFGRATHAVVRALPESLGQHALRSAKGEEVDVARAERQHQLYVGVLGSKLGLQVVELPADESLPDCVFVEDVAVVCEETALITRPGAPSRRKEVDMMKEALEKLQLNIVEMKDENATLDGGDVLFTGREFFVGLSKRTNQRGAEILADTFKDYAVSTVPVADGLHLKSFCSMAGPNLIAIGSSESAQKALKIMQQMSDHRYDKLTVPDDIAANCIYLNIPNKGHVLLHRTPEEYPESAKVYEKLKDHMLIPVSMSELEKVDGLLTCCSVLINKKVDS
  Km: 45 ± 2 µM
